Assay results: publication PMC9785812 (Pharmaceutics, 2022)
Read-outs that look alike come from different tables or passages of the source.

Tests used:
[1] = biological target: T1, SSTR2 receptors (Rattus norvegicus, UniProt P30680); assay: Cell binding assay (membrane association and internalization); format: cell-based; conditions: for decrease of binding by co-incubation with unlabeled DOTA-TATE: 1 h
T1 construct: CA20948 cells are derived from rat pancreas and express SSTR2 endogenously; endogenous in cells; host or cells: CA20948 rat pancreatic cancer cells
Procedure: Rat pancreatic cancer cell line CA20948 was used given the somatostatin receptor 2 (SSTR2) overexpression as it is found in many human neuroendocrine tumors. Cells were grown in DMEM High Glucose and Pyruvate medium (Gibco 41966029) supplemented with 10% fetal bovine serum (Gibco 10270106) and 100 U/mL penicillin-streptomycin (Sigma-Aldrich P4333) and were maintained in a humidified incubator at 37 °C with 5% CO2 supply. All in vitro results were obtained from a minimum of three replicates per condition.
Hereafter, fractions were collected. First, the membrane-bound fraction was collected following 10 min incubation at room temperature in strip buffer (50 mM glycine, 100 mM NaCl, pH 2.8). Then, the internalized fraction was collected by 30 min of cell lysis (1 M NaOH) at room temperature. […] In addition, total cell number per well was obtained using a MOXI™ automated cell counter (VWR, Leuven, Belgium).

[2] = Ex vivo biodistribution in CA20948 xenograft mice; conditions: mouse, iv
Procedure: Quantification of activity was performed with an automated gamma counter equipped with a 3-in NaI(Tl) detector coupled to a multichannel analyzer (2480 Wizard^2, Perkin Elmer, Zaventem, Belgium). The results were corrected for background signal, physical decay during counting and detector dead time.
Male NMRI nude mice (between 8 and 15 weeks old) were anesthetized with 2.5% isoflurane in O2 at a flow rate of 0.2 L min^−1 and subcutaneously injected on the right shoulder with 1 × 10^6 CA20948 cells resuspended in PBS with 30% matrigel®. Tumor dimensions were measured two or three times per week and volume was calculated as length × width × height. Mice were sacrificed if the tumor volume exceeded 600 mm^3 or if more than 10% of the original body weight was lost.
Additionally, similar biodistribution studies were performed with free (unlabeled) [^153Sm]SmCl3 to identify the organs with ^153Sm accumulation in case of release from the complex. […] The mice were sacrificed by an overdose pentobarbital (200 µL of 60 mg/mL) 1, 4, 24 and 72 h post-injection (p.i.) (n = 3–4 per time point). Blood was collected via cardiac puncture. Organs of interest were collected in tared tubes and weighed. The activity in the different organs was measured in the gamma counter. For the calculation of the total activity in the blood, bone and muscle, the masses were assumed to be, respectively, 7, 12 and 40% of the total body mass. Data were expressed as a percentage of injected activity (%IA) and standardized uptake value (SUV). %IA was calculated as (counts per min (cpm) in organ)/(IA converted to cpm) × 100. SUV was calculated as (activity in cpm in organ/weight of organ in g)/(IA/total body weight in g).

[3] = male, NMRI nude, bone, total radioactivity, read-out: Bone SUV
[4] = male, NMRI nude, in vivo, total radioactivity, read-out: Excreted %IA
[5] = male, NMRI nude, intestines, total radioactivity, read-out: Intestines %IA
[6] = male, NMRI nude, kidneys, total radioactivity, read-out: Kidneys %IA
[7] = male, NMRI nude, liver, total radioactivity, read-out: Liver %IA
[8] = male, NMRI nude, muscle, total radioactivity, read-out: Muscle %IA
[9] = male, NMRI nude, pancreas, total radioactivity, read-out: Pancreas %IA
[10] = male, NMRI nude, pancreas, total radioactivity, read-out: Pancreas SUV
[11] = male, NMRI nude, spleen, total radioactivity, read-out: Spleen SUV
[12] = male, NMRI nude, stomach, total radioactivity, read-out: Stomach %IA
[13] = male, NMRI nude, tumor, total radioactivity, read-out: Tumor %IA

T1 sequence (P30680 whole entry): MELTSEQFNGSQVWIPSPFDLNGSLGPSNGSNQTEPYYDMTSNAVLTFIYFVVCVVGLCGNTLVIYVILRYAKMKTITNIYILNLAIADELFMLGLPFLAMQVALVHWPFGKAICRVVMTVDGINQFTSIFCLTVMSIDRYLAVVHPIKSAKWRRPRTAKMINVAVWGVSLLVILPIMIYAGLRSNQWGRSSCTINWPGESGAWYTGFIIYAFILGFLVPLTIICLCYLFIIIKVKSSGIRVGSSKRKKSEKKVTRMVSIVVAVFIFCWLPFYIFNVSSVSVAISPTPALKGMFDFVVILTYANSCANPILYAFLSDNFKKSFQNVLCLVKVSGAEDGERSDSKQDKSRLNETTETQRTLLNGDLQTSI

In the case of C[C@@H](O)[C@H](NC(=O)[C@@H]1CSSC[C@H](NC(=O)[C@@H](Cc2ccccc2)NC(=O)CN2CCN(CC(=O)O)CCN(CC(=O)O)CCN(CC(=O)O)CC2)C(=O)N[C@@H](Cc2ccc(O)cc2)C(=O)N[C@H](Cc2c[nH]c3ccccc23)C(=O)N[C@@H](CCCCN)C(=O)N[C@@H]([C@@H](C)O)C(=O)N1)C(=O)O [[^153Sm]Sm-DOTA-TATE, metal not drawn], the “internalized fraction of cell-associated activity” value ([1]; 2.5 nM (2.7 kBq), 1 h incubation, mean ± SD) is reported as 79 ± 2%, the “decrease of binding by co-incubation with unlabeled DOTA-TATE” value ([1]; 4-fold molar excess of unlabeled DOTA-TATE) is reported as “about 40%” and the “decrease of binding by co-incubation with unlabeled DOTA-TATE” value ([1]; 4000-fold molar excess of unlabeled DOTA-TATE) is reported as about 92%. It also gave an SUV at 1 h ([2]; male, NMRI nude, blood, total radioactivity, read-out: Blood SUV) of 0.1 SUV, a tissue uptake dose at 4 h ([2]; male, NMRI nude, bone, total radioactivity, read-out: Bone %IA) of 0.5 ± 0.1 %ID and an SUV at 1 h [2, 3] of 0.1 SUV. For the same molecule, the SUV at 4 h [2, 3] was 0.1 SUV, the tissue uptake dose at 1 h [2, 4] was 80 ± 4.4 %ID and the tissue uptake dose at 4 h [2, 4] was 83 ± 3.5 %ID. For the same molecule, the tissue uptake dose at 24 h [2, 4] was 94.1 ± 3.6 %ID, the tissue uptake dose at 72 h [2, 4] was 96.6 ± 1.7 %ID and the tissue uptake dose at 4 h [2, 5] was 4.4 ± 1.5 %ID. The tissue uptake dose at 72 h [2, 5] was 0.1 %ID, the SUV at 72 h ([2]; male, NMRI nude, kidneys, total radioactivity) was 0.1 SUV and the tissue uptake dose at 4 h [2, 6] was 2.4 ± 0.6 %ID. It also gave a tissue uptake dose at 72 h [2, 6] of 0.1 %ID, an SUV at 24 h ([2]; male, NMRI nude, kidneys, total radioactivity, read-out: Kidneys SUV) of 0.3 ± 0.1 SUV and a tissue uptake dose at 1 h [2, 7] of 0.4 ± 0.1 %ID. For the same molecule, the tissue uptake dose at 24 h [2, 7] was 0.1 %ID, the SUV at 1 h ([2]; male, NMRI nude, liver, total radioactivity, read-out: Liver SUV) was 0.1 SUV and the tissue uptake dose at 1 h ([2]; male, NMRI nude, lungs, total radioactivity, read-out: Lungs %IA) was 0.1 %ID. It also gave an SUV at 1 h ([2]; male, NMRI nude, lungs, total radioactivity, read-out: Lungs SUV) of 0.1 SUV, a tissue uptake dose at 1 h [2, 8] of 1 ± 0.4 %ID and a tissue uptake dose at 24 h [2, 8] of 0.1 %ID. For the same molecule, the SUV at 4 h ([2]; male, NMRI nude, muscle, total radioactivity, read-out: Muscle SUV) was 0.1 SUV, the tissue uptake dose at 1 h [2, 9] was 1 ± 0.1 %ID and the tissue uptake dose at 4 h [2, 9] was 0.4 ± 0.3 %ID. It also gave a tissue uptake dose at 24 h [2, 9] of 0.1 %ID, an SUV at 4 h [2, 10] of 0.6 ± 0.4 SUV and an SUV at 24 h [2, 10] of 0.1 SUV. For the same molecule, the SUV at 1 h [2, 11] was 0.1 SUV, the SUV at 4 h [2, 11] was 0.1 SUV and the tissue uptake dose at 1 h [2, 12] was 0.7 ± 0.1 %ID. For the same molecule, the tissue uptake dose at 4 h [2, 12] was 1 ± 0.3 %ID, the tissue uptake dose at 72 h [2, 12] was 0.1 %ID and the tissue uptake dose at 4 h [2, 13] was 6.1 ± 3.7 %ID. For the same molecule, the tissue uptake dose at 24 h [2, 13] was 3.2 ± 2.9 %ID, the tissue uptake dose at 72 h [2, 13] was 2.2 ± 1.6 %ID and the SUV at 4 h ([2]; male, NMRI nude, tumor, total radioactivity, read-out: Tumor SUV) was 4.4 ± 1.1 SUV. It also gave a tissue uptake dose at 4 h ([2]; male, NMRI nude, whole blood, total radioactivity, read-out: Blood %IA) of 0.1 %ID, a tissue uptake dose at 24 h ([2]; bone, total radioactivity, 24 h p.i., CA20948 tumor bearing male NMRI-nude mice, ~2-3 MBq i.v., mean ± SD, n = 3-4, read-out: Bone %IA) of 0.2 ± 0.1 %ID and a tissue uptake dose at 72 h ([2]; bone, total radioactivity, 72 h p.i., CA20948 tumor bearing male NMRI-nude mice, ~2-3 MBq i.v., mean ± SD, n = 3-4, read-out: Bone %IA) of 0.2 %ID. For the same molecule, the “Blood %IA” value ([2]; in vivo) was 0.0 ± 0.0 %IA, the “Blood SUV” value ([2]; in vivo) was 0.0 ± 0.0 and the “Bone %IA” value ([2]; in vivo) was 0.4 ± 0.0 %IA. The “Bone SUV” value ([2]; in vivo) was 0.0 ± 0.0, the “Brain %IA” value ([2]; in vivo) was 0.0 ± 0.0 %IA and the “Brain SUV” value ([2]; in vivo) was 0.0 ± 0.0. For the same molecule, the “Heart %IA” value ([2]; in vivo) was 0.0 ± 0.0 %IA, the “Heart SUV” value ([2]; in vivo) was 0.0 ± 0.0 and the “Liver SUV” value ([2]; in vivo) was 0.0 ± 0.0. For the same molecule, the “Lungs %IA” value ([2]; in vivo) was 0.0 ± 0.0 %IA, the “Lungs SUV” value ([2]; in vivo) was 0.0 ± 0.0 and the “Muscle %IA” value ([2]; in vivo) was 0.0 ± 0.0 %IA. The “Muscle SUV” value ([2]; in vivo) was 0.0 ± 0.0, the “Pancreas %IA” value ([2]; in vivo) was 0.0 ± 0.0 %IA and the “Pancreas SUV” value ([2]; in vivo) was 0.0 ± 0.0. The “Spleen %IA” value ([2]; in vivo) was 0.0 ± 0.0 %IA, the “Spleen SUV” value ([2]; in vivo) was 0.0 ± 0.0 and the tissue uptake dose at 1 h ([2]; intestines, total radioactivity, 1 h p.i., CA20948 tumor bearing male NMRI-nude mice, ~2-3 MBq i.v., mean ± SD, n = 3-4, read-out: Intestines %IA) was 2 ± 0.3 %ID. It also gave a tissue uptake dose at 24 h ([2]; intestines, total radioactivity, 24 h p.i., CA20948 tumor bearing male NMRI-nude mice, ~2-3 MBq i.v., mean ± SD, n = 3-4, read-out: Intestines %IA) of 0.6 ± 0.2 %ID, a tissue uptake dose at 1 h ([2]; total radioactivity, 1 h p.i., CA20948 tumor bearing male NMRI-nude mice, ~2-3 MBq i.v., mean ± SD, n = 3-4, read-out: Tumor %IA) of 3.7 ± 2 %ID and a tissue uptake dose at 24 h ([2]; kidneys, total radioactivity, 24 h p.i., CA20948 tumor bearing male NMRI-nude mice, ~2-3 MBq i.v., mean ± SD, n = 3-4, read-out: Kidneys %IA) of 0.5 ± 0.2 %ID. The tissue uptake dose at 4 h ([2]; liver, total radioactivity, 4 h p.i., CA20948 tumor bearing male NMRI-nude mice, ~2-3 MBq i.v., mean ± SD, n = 3-4, read-out: Liver %IA) was 0.2 %ID, the tissue uptake dose at 72 h ([2]; liver, total radioactivity, 72 h p.i., CA20948 tumor bearing male NMRI-nude mice, ~2-3 MBq i.v., mean ± SD, n = 3-4, read-out: Liver %IA) was 0.2 %ID and the SUV at 1 h ([2]; muscle, total radioactivity, 1 h p.i., CA20948 tumor bearing male NMRI-nude mice, ~2-3 MBq i.v., mean ± SD, n = 3-4, read-out: Muscle SUV) was 0.2 ± 0.1 SUV. The tissue uptake dose at 4 h ([2]; muscle, total radioactivity, 4 h p.i., CA20948 tumor bearing male NMRI-nude mice, ~2-3 MBq i.v., mean ± SD, n = 3-4, read-out: Muscle %IA) was 0.4 ± 0.2 %ID, the SUV at 1 h ([2]; pancreas, total radioactivity, 1 h p.i., CA20948 tumor bearing male NMRI-nude mice, ~2-3 MBq i.v., mean ± SD, n = 3-4, read-out: Pancreas SUV) was 1.2 ± 0.2 SUV and the tissue uptake dose at 24 h ([2]; stomach, total radioactivity, 24 h p.i., CA20948 tumor bearing male NMRI-nude mice, ~2-3 MBq i.v., mean ± SD, n = 3-4, read-out: Stomach %IA) was 0.3 ± 0.2 %ID. It also gave a tissue uptake dose at 1 h ([2]; whole blood, total radioactivity, 1 h p.i., CA20948 tumor bearing male NMRI-nude mice, ~2-3 MBq i.v., mean ± SD, n = 3-4, read-out: Blood %IA) of 0.7 ± 0.2 %ID.
